Laboratory results published in patent US20140255414A1.

Target: Aβ(pE11-30) peptide
Assay: direct ELISA, adsorbed Aβ(pE11-30), 1 µg/ml biotinylated antibody with SA-HRP

Aβ(pE11-30) peptide, sequence (peptide, as listed by the source): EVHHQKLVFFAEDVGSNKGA

biotinylated monoclonal mouse anti Aβ(17-24) antibody (clone 4G8, Covance)
ELISA signal relative to clone 13: 5 times lower
